Measurements reported in patent US20020055130A1, “Method and product for regulating apoptosis” (National Jewish Center for Immunology and Respiratory …, priority 1997, published 2002).

B1: DTVD→A: MEKK1 mutant with DTVD (amino acids 871-874) substituted with alanines (protein, UniProt P53349 2-1493, looked up, variant D871A T872A V873A D874A)
Mitogen-activated protein …: AAAAGDRASSSGFPGAAAASPEAGGGGGGGGALQGSGAPAAGAAGLLREPGSAGRERADWRRRQLRKVRSVELDQLPEQPLFLAAASPPCPSTSPSPEPADAAAGASRFQPAAGPPPPGAASRCGSHSAELAAARDSGARSPAGAEPPSAAAPSGREMENKETLKGLHKMEDRPEERMIREKLKATCMPAWKHEWLERRNRRGPVVVKPIPIKGDGSEVNNLAAEPQGEGQAGSAAPAPKGRRSPSPGSSPSGRSVKPESPGVRRKRVSPVPFQSGRITPPRRAPSPDGFSPYSPEETSRRVNKVMRARLYLLQQIGPNSFLIGGDSPDNKYRVFIGPQNCSCGRGAFCIHLLFVMLRVFQLEPSDPMLWRKTLKNFEVESLFQKYHSRRSSRIKAPSRNTIQKFVSRMSNSHTLSSSSTSTSSSENSIKDEEEQMCPICLLGMLDEESLTVCEDGCRNKLHHHCMSIWAEECRRNREPLICPLCRSKWRSHDFYSHELSSPVESPASLRAVQQPSSPQQPVAGSQRRNQESSFNLTHFGTQQIPSAYKDLAEPWIQVFGMELVGCLFSRNWNVREMALRRLSHDVSGALLLANGESTGNSGGGSGGSLSAGAASGSSQPSISGDVVEACCSVLSIVCADPVYKVYVAALKTLRAMLVYTPCHSLAERIKLQRLLRPVVDTILVKCADANSRTSQLSISTVLELCKGQAGELAVGREILKAGSIGVGGVDYVLSCILGNQAESNNWQELLGRLCLIDRLLLEFPAEFYPHIVSTDVSQAEPVEIRYKKLLSLLTFALQSIDNSHSMVGKLSRRIYLSSARMVTAVPAVFSKLVTMLNASGSTHFTRMRRRLMAIADEVEIAEVIQLGVEAAAAGHQDSLQAVAPTSCLENSSLEHTVHREKTGKGLSATRLSASSEDISDRLAGVSVGLPSSTTTEQPKPAVQTKGRPHSQCLNSSPLSHAQLMFPAPSAPCSSAPSVPDISKHRPQAFVPCKIPSASPQTQRKFSLQFQRNCSEHRDSDQLSPVFTQSRPPPSSNIHRPKPSRPVPGSTSKLGDATKSSMTLDLGSASRCDDSFGGGGNSGNAVIPSDETVFTPVEDKCRLDVNTELNSSIEDLLEASMPSSDTTVTFKSEVAVLSPEKAENDDTYKDDVNHNQKCKEKMEAEEEEALAIAMAMSASQDALPIVPQLQVENGEDIIIIQQDTPETLPGHTKAKQPYREDAEWLKGQQIGLGAFSSCYQAQDVGTGTLMAVKQVTYVRNTSSEQEEVVEALREEIRMMGHLNHPNIIRMLGATCEKSNYNLFIEWMAGGSVAHLLSKYGAFKESVVINYTEQLLRGLSYLHENQIIHRDVKGANLLIDSTGQRLRIADFGAAARLASKGTGAGEFQGQLLGTIAFMAPEVLRGQQYGRSCDVWSVGCAIIEMACAKPPWNAEKHSNHLALIFKIASATTAPSIPSHLSPGLRDVAVRCLELQPQDRPPSRELLKHPVFRTTW
B2: p35: baculovirus protein with broad inhibitory activity to ICE/FLICE-like proteases (protein, UniProt P08160 1-299, looked up)
Early 35 kDa protein: MCVIFPVEIDVSQTIIRDCQVDKQTRELVYINKIMNTQLTKPVLMMFNISGPIRSVTRKNNNLRDRIKSKVDEQFDQLERDYSDQMDGFHDSIKYFKDEHYSVSCQNGSVLKSKFAKILKSHDYTDKKSIEAYEKYCLPKLVDERNDYYVAVCVLKPGFENGSNQVLSFEYNPIGNKVIVPFAHEINDTGLYEYDVVAYVDSVQFDGEQFEEFVQSLILPSSFKNSEKVLYYNEASKNKSMIYKALEFTTESSWGKSEKYNWKIFCNGFIYDKKSKVLYVKLHNVTSALNKNVILNTIK

Assays:
[1] = system: MEKK1; assay: SEK1 K→M phosphorylation by MEKK1 immunoprecipitates; format: biochemical, mouse; conditions: HEK293 lysates; 95-012 antibody
Method: MEKK1 was immunoprecipitated from cell lysates (200-500 μg) with the antibodies raised against specific sequences of MEKK1 or the 12CA5 antibody that recognizes the HA-tag sequence.

[2] = system: MEKK1; assay: Immunoblot of cleavage fragments of transfected HA-tagged MEKK1 in HEK293 cells; format: cell-based, Human
Source text: The full length cDNA encoding mouse MEKK1 was modified by addition of the HA-tag sequence ([…]) (SEQ ID NO: 12) at its NH2-terminus and inserted into the expression plasmid pCEP4 (Invitrogen), resulting in plasmid MEKK1.cp4. The MEKK1 sequences DTVD (amino acids 871-874) and DEVE (amino acids 857-860) in MEKK1.cp4 were substituted with alanines using a PCR strategy. The resulting plasmids were named DTVD_A.cp4 and DEVE_A.cp4. The cDNAs for CrmA (Pickup et al., 1986), p35 (Cartier et al., 1994), JNK1-APF (Dérijard et al., 1994) and JNK2-APF (Kallunki et al., 1994) were subcloned in pCEP4 in which the hygromycin resistance gene had been removed, resulting in plasmids CrmA.cp_, p35.cp_, JNK1_APF.cp and JNK2_APF.cp_. Plasmid pCDNA—3.cp4 is the result of the ligation of pCEP4 and pCDNA-3.
200-400 μg cell lysate protein was subjected to SDS-9% PAGE and transferred to nitrocellulose membranes. Blots were performed exactly as described (Widmann et al., 1995). To detect HA-tagged proteins, the mouse monoclonal antibody 12CA5 (Babco) was used as the primary antibody, followed by a rabbit anti-mouse antibody (Cappel). HRP-conjugated protein A at a 1/5000 dilution (Zymed) and ^125I-protein A at a 1/500 dilution (Dupont NEN) were then used for enhanced chemiluminescence (ECL) detection and for quantification using the phosphorimager. To detect MEKK1, 3 different ploclonal antisera were used as primary antibodies, followed by ECL detection using HRP-protein A (see above). These sera were generated by injecting rabbits with GST proteins fused with different portions of the MEKK1 protein.

[3] = system: HEK293 cells; assay: MEKK1 staining and TdT-mediated dUTP incorporation (DNA fragmentation) in transfected cells; format: cell-based, Human
Method: Human embryonal kidney 293 cells (HEK293) stably expressing the EBNA-1 protein from Epstein-Barr virus (Invitrogen) were grown in Dulbecco's modified Eagle's medium (DMEM) supplemented with 100 U/ml penicillin/streptomycin and containing 10% bovine calf serum (BCS). The cells were transfected using lipofectamine (Gibco).
Cells were grown on glass coverslips and transfected using lipofectamine. Two days after transfection, the medium was removed and the cells were fixed in 2% paraformaldehyde, 3% sucrose in phosphate buffered saline (PBS) for 10 min at room temperature. Following three washes with PBS, the cells were permeabilized for 10 min with 2% Triton-X100 in PBS. After three PBS washes, the cells were blocked with filtered cultured medium for 15 min. The coverslips were then incubated 1 hour in TdT reaction mix (200 mM potassium cacodylate, 25 mM Tris.HCl, pH 6.6, 250 μg/ml BSA, 5 mM CoCl2, 0.25 U/μl TdT [Boehringer], 10 μM biotin-dUTP [Boehringer]) at 37° C. in a humidifed atmosphere. […] The coverslips were then washed 6× over a 30 min period with PBS and incubated 1 hour at room temperature with a 1/1000 dilution in filtered culture medium of a donkey anti-rabbit, Cy^3-conjugated, antibody (Jackson Immunological) mixed with 5 μg/ml streptavidin conjugated with FITC (Jackson Immunological). The coverslips were washed 6× with PBS and incubated overnight in PBS before being mounted in 20 mg/ml o-phenyldiamine-diHCl (Sigma) in 0.1 M Tris pH 8.5, 90% glycerol. Images were taken using a Leica DMRXA microscope and analyzed with the SlideBook v2.0 software (Intelligent Imaging Innovations, Denver). The subcellular localization of endogenous MEKK1 observed with the anti-COOH-terminal MEKK1 antibody was identical to that observed with a second antibody recognizing the NH2-terminal portion of the MEKK1 protein.

[4] = system: c-Jun kinase (JNK); assay: c-Jun kinase assay, transfected HEK293 cells; format: cell-based, Human
Method: (§1) Lysis buffer (70 mM β-glycerophosphate, 1 mM EGTA, 100 μM Na3VO4, 1 mM DTT, 2 mM MgCl2, 0.5% Triton-X100, 20 μg/ml aprotinin) was added to cells 15-24 hours after transfection. Cellular debris was removed by centrifugation at 8,000xg for 5 min. Protein concentration was normalized by Bradford assay using BSA as standard.
c-Jun kinase (JNK) activity was measured using a solid phase kinase assay in which glutathione S-transferase-c-Jun(1-79) (GST-Jun) bound to glutathione-Sepharose 4B beads was used to affinity-purify JNK from cell lysates as described (Gardner and Johnson, 1996; Hibi et al., 1993). Alternatively, JNKI or JNK2 were immunoprecipitated with isoform specific antibodies (Santa Cruz Biotechnology) and GST-Jun used as substrate in an in vitro kinase assay (Hibi et al., 1993). Quantitation of the phosphorylation of GST-Jun was performed with a Phosphorlmager.

[5] = system: ERK2; assay: ERK2 immunoprecipitation kinase assay, transfected HEK293 cells; format: cell-based, Human; conditions: co-expression with MEKK1
Method: as §1
ERK2 was immunoprecipitated as described above for the JNK isoforms using the ERK2 (C-14) antibody (Santa Cruz Biotechnology). The beads were washed twice with 1 ml lysis buffer and twice with 1 ml lysis buffer without Triton-X100. […] The samples were washed thrice for 5 min each in 75 mM phosphoric acid and once for 2 min in acetone, air-dried, and their radioactivity determined in a β counter.

[6] = co-expression with MEKK1, 6 independent experiments

Row | Molecule | SEK1 phosphorylation by COOH-terminal antibody immunoprecipitates [1] | MEKK1 cleavage fragments generated ([2]; mutants transfected into HEK293 cells) | reduction in number of expressing cells showing DNA fragmentation ([3]; compared to wild-type MEKK1 or the DEVE→A mutant) | DNA fragmentation ([3]; expression in HEK293 cells) | JNK activation ([4]; expression in HEK293 cells) | effect on activation of ERK2 by MEKK1 [5] | amount of fragment A [2, 6] | diminution of the amount of fragment B [2, 6] | expressing cells showing DNA breaks ([3]; co-expression with ΔMEKK1) | cells showing some DNA fragmentation ([3]; cotransfected with MEKK1) | effect on activation of the JNKs by MEKK1 ([4]; co-expression with MEKK1)
1 | B1 | reduced | only cleaved into fragments A and D | 65% | little DNA fragmentation | activated JNK to the same level as wild type MEKK1 | – | – | – | – | – | –
2 | B2 | reached the same level of phosphorylation observed when the 12CA5 antibody was used | – | – | – | – | unaffected | unchanged | 90% | 10% | about 5% | unaffected
